Laboratory results published in paper PMC10095102, “Conformational Changes of Acyl Carrier Protein Switch the Chain Length Preference of Acyl-ACP Thioesterase ChFatB2” (International Journal of Molecular Sciences, 2023).

T1: acyl-ACP thioesterase ChFatB2 from Cuphea hookeriana, excluding the transit peptide (residues 129-395) (Cuphea hookeriana, UniProt Q39514 129-395)
T1 construct: acyl-ACP thioesterase ChFatB2, Cuphea hookeriana, residues 129-395, excluding the transit peptide; pCold II vector; source: E. coli BL21 (DE3), purified (Ni-NTA, Superdex 200)
T1 sequence (looked up): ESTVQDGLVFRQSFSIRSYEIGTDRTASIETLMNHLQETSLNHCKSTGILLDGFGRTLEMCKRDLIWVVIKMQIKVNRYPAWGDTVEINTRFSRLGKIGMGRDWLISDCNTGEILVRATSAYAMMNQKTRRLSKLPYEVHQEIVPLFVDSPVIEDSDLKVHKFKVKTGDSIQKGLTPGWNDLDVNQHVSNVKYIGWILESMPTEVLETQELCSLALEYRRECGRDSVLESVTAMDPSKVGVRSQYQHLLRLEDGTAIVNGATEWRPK

B1: C8-acyl acyl carrier protein from Escherichia coli (natural protein)
chain: STIEERVKKIIGEQLGVKQEEVTNNASFVEDLGADSLDTVELVMALEEEFDTEIPDEEAEKITTVQAAIDYINGHQA
modifications: C8 (8:0) acyl chain on the phosphopantetheine of holo-ACP (residue not given)
notes: also called C8-EcACP; C8-ACP
B2: C10-acyl acyl carrier protein from Escherichia coli (natural protein)
chain: B1 chain
modifications: C10 (10:0) acyl chain on the phosphopantetheine of holo-ACP (residue not given)
notes: also called C10-EcACP
B3: C8-acyl acyl carrier protein 2 from Cuphea lanceolata (residues 54-137) (natural protein, UniProt P52412 54-137, looked up)
chain: QAKPETVTKVCNIVKKQLALPDDSDVSGVSKFSALGADSLDTVEIVMGLEEEFGISVEEESAQSIQTVQDAADLIEKLMEKKGH
modifications: C8 (8:0) acyl chain on the phosphopantetheine of holo-ACP (residue not given)
notes: acyl carrier protein ClACP2, Cuphea lanceolata, UniProt P52412, residues 54-137, excluding the chloroplast transit peptide; also called C8-ClACP2
B4: C10-acyl acyl carrier protein 2 from Cuphea lanceolata (residues 54-137) (natural protein, UniProt P52412 54-137, looked up)
chain: B3 chain
modifications: C10 (10:0) acyl chain on the phosphopantetheine of holo-ACP (residue not given)
notes: acyl carrier protein ClACP2, Cuphea lanceolata, UniProt P52412, residues 54-137, excluding the chloroplast transit peptide; also called C10-ClACP2
B5: holo acyl carrier protein from Escherichia coli (natural protein)
chain: B1 chain
modifications: holo form (phosphopantetheine; residue not given)
notes: also called holo-EcACP; EC-holo-ACP; source: E. coli BAP1 (chromosomal B. subtilis Sfp), purified (Ni-NTA, Superdex 200)
B6: holo acyl carrier protein 2 from Cuphea lanceolata, excluding the chloroplast transit peptide (residues 54-137) (natural protein, UniProt P52412 54-137, looked up)
chain: B3 chain
modifications: holo form (phosphopantetheine; residue not given)
notes: acyl carrier protein ClACP2, Cuphea lanceolata, UniProt P52412, residues 54-137, excluding the chloroplast transit peptide; also called holo-ClACP2; ClACP2; source: E. coli BAP1 (chromosomal B. subtilis Sfp), purified (Ni-NTA, Superdex 200)

What follows are binders tested against T1, acyl-ACP thioesterase ChFatB2 from … (assay: liquid crystal assay; ChFatB2 (5 μg/mL, 1.5 µL) dried on DMOAP-coated glass slides; ACP solutions (10 μg/mL, 1.5 µL) deposited on the immobilized ChFatB2, 30 min, washed with deionized water; grayscale of polarised-light images of the liquid crystal cell (Image J); semi-quantitative; holo-ACP defined as 100% binding). Conditions: both partners purified.

Binder	grayscale of the liquid crystal image [grayscale]
B1	106 ± 11.8
B2	138 ± 5.3
B3	139 ± 6
B4	96.7 ± 11
B5	156 ± 3.2
B6	145 ± 19.1

What follows are binders tested against T1, acyl-ACP thioesterase ChFatB2 from … (assay: cell-based or functional assay). Conditions: not given.

Binder	relative activity of ChFatB2 (thioesterase, DTNB assay) [µmol/min/mg]
B1	0.07
B2	0.17
B3	0.51
B4	0.33

Biological target: T1, acyl-ACP thioesterase ChFatB2 from …
Experiment: cell-based or functional assay
Conditions: not given
Remark: another data set of the same source

Binder	Km of ChFatB2 thioesterase activity (DTNB assay, Michaelis-Menten fit) [µM]
B1	350
B2	186
B3	217
B4	263
